Patent US20200071378A1 (SHATTUCK LABS, published 2020)

Experiments:
hOX40-His [1] = molecular target: T1, hOX40-His (human, UniProt P43489 29-216, limits assumed); assay: SPR (BioRad ProteOn XPR 360) per Example 5; FIG. 5 legend says biolayer interferometry (Octet); hOX40-His as ligand, analyte at 222.2 nM
T1 construct: also called human OX40
T1 sequence (looked up): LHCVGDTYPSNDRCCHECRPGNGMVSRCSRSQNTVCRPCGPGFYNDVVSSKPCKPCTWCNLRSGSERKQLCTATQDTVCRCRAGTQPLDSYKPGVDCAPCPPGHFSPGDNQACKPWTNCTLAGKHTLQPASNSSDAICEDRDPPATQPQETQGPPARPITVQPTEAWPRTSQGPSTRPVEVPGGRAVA

[2] = molecular target: T2, human OX40 expressed on cells (Jurkat/hOX40) (human, UniProt P43489 29-277); assay: flow cytometry on Jurkat/hOX40 cells
T2 construct: whole, on cells; also called Jurkat cells engineered to overexpress human OX40; OX40 present on the cell surface
T2 sequence (looked up): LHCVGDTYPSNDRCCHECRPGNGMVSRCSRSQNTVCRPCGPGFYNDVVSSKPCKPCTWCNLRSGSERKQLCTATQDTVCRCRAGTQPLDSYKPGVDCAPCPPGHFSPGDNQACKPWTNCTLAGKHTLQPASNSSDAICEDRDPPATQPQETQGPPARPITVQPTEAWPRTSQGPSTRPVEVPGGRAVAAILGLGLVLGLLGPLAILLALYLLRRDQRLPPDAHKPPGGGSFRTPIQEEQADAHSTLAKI
Procedure: For cell binding assays, immortalized cell lines were engineered to stably express human OX40 (Jurkat/hOX40). Increasing concentrations of the VSIG8-Fc-OX40L chimeric protein were incubated with the over-expressing (Jurkat/hOX40) cell line for two hours. Cells were collected, washed, and stained with antibodies for the detection of chimeric protein binding by flow cytometry.

hOX40-His [3] = molecular target: T1, hOX40-His; assay: SPR/Octet kinetics on hOX40-His, against the control Fc-OX40L
human IgG (plate-bound) = molecular target: T3, human IgG (plate-bound); assay: ELISA, left panel; sheet header 'IgG ELISA, H&L Capture, Fc-HRP Detect'; paragraph 219: capture on plate-bound human IgG, detection with HRP-conjugated anti-human IgG antibody
T3 construct: Capture reagent as printed; It may in fact be an anti-human IgG antibody; also called hIgG
Text: Specifically, the Fc portion of the chimeric protein was detected by capturing to a plate-bound human IgG and detecting via an HRP-conjugated anti-human IgG antibody (left panel of FIG. 3). The OX40 domain of the chimeric protein was detected by capturing to a plate-bound recombinant human OX40 protein and detecting via an anti-OX40-specific antibody (right panel of FIG. 3). It was observed that in ELISA assays, using the central Fc region to detect chimeric proteins tended to underestimate the actual protein content in a sample. Therefore, low level of the hVSIG8-Fc-OX40L chimeric protein was detected compared to standard in this assay.

hOX40-His [4] = molecular target: T1, hOX40-His; assay: SPR (BioRad ProteOn XPR 360) per Example 5; FIG. 5 legend says biolayer interferometry (Octet); hOX40-His as ligand, analyte at 117.6 nM
[5] = molecular target: T4, recombinant murine OX40-His (murine, UniProt P47741 20-211, limits assumed); assay: biolayer interferometry, 'Octet Binding Affinities, Ligand: mouse OX40-His'; penta-His biosensors; Example 11 calls it SPR
T4 construct: Coated on penta-his biosensors; also called mOX40
T4 sequence (looked up): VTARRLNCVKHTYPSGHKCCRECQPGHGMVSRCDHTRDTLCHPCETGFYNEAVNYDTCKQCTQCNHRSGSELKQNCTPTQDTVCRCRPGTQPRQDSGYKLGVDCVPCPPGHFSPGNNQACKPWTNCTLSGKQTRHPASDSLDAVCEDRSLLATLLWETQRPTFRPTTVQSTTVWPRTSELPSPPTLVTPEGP

B1: commercially-available single-sided human Fc-OX40L (Fc fusion, UniProt P23510 51-183, looked up)
chain: QVSHRYPRIQSIKVQFTEYKKEKGFILTSQKEDEIMKVQNNSVIINCDGFYLISLKGYFSQEVNISLHYQKDEEPLFQLKKVRSVNSLMVASLTYKDKVYLNVTTDNTSLDDFHVNGGELILIHQNPGEFCVL
notes: Bought control; also called hFc-OX40L; recombinant control protein; not shown: Fc part of a bought control protein, not described
hOX40-His [1]
  Kd: 61 nM
  koff: 0.00254 s⁻¹
  kon: 41700 M⁻¹ s⁻¹

B2: human VSIG8-Fc-OX40L chimeric protein (Fc fusion)
chain: VRINGDGQEVLYLAEGDNVRLGCPYVLDPEDYGPNGLDIEWMQVNSDPAHHRENVFLSYQDKRINHGSLPHLQQRVRFAASDPSQYDASINLMNLQVSDTATYECRVKKTTMATRKVIVTVQARPAVPMCWTEGHMTYGNDVVLKCYASGGSQPLSYKWAKISGHHYPYRAGSYTSQHSYHSELSYQESFHSSINQGLNNGDLVLKDISRADDGLYQCTVANNVGYSVCVVEVKVSDSRRIGCPPCPAPEFLGGPSVFLFPPKPKDQLMISRTPEVTCVVVDVSQEDPEVQFNWYVDGVEVHNAKTKPREEQFNSTYRVVSVLTVLHQDWLSGKEYKCKVSSKGLPSSIEKTISNATGQPREPQVYTLPPSQEEMTKNQVSLTCLVKGFYPSDIAVEWESNGQPENNYKTTPPVLDSDGSFFLYSRLTVDKSRWQEGNVFSCSVLHEALHNHYTQKSLSLSLGKIEGRMDQVSHRYPRIQSIKVQFTEYKKEKGFILTSQKEDEIMKVQNNSVIINCDGFYLISLKGYFSQEVNISLHYQKDEEPLFQLKKVRSVNSLMVASLTYKDKVYLNVTTDNTSLDDFHVNGGELILIHQNPGEFCVL
notes: also called hVSIG8-Fc-OX40L
[2]
  EC50: ~30 nM
hOX40-His [3]
  fold slower off-rate than the Fc-OX40L protein: 10 fold
Human IgG (plate-bound)
  EC50 (read off the curve): ~6 nM
hOX40-His [4]
  Kd: 0.767 nM
  koff: 0.000254 s⁻¹
  kon: 331000 M⁻¹ s⁻¹

B3: commercially-available mFc-OX40L (Fc fusion, murine, UniProt P43488 51-198, looked up)
chain: SSSPAKDPPIQRLRGAVTRCEDGQLFISSYKNEYQTMEVQNNSVVIKCDGLYIIYLKGSFFQEVKIDLHFREDHNPISIPMLNDGRRIVFTVVASLAFKDKVYLTVNAPDTLCEHLQINDGELIVVQLTPGYCAPEGSYHSTVNQVPL
notes: Bought control; Construct is not described; also called commercially-available recombinant control protein; not shown: Fc part of a bought control protein, not described
[5]
  binding result: binds
